From patent publication US20220089704A1 (Biogen, published 2022) come the findings set out here.

Assay [1] has as its target T1, Human alpha-synuclein (human, UniProt P37840 1-140). The assay is described as follows: direct binding ELISA, plates coated with human alpha-synuclein; 12F4 hIgG1 as reference. The source says: (§1) FIG. 46A is a graph showing alpha-synuclein direct binding ELISA. Human alpha-synuclein was coated on ELISA plates, treated with several dilutions of test reagents, and antibody binding at the indicated concentrations was detected with an HRP conjugated anti-hIgG secondary, measured by absorbance at 450 nm.
In general terms: An ELISA detects its analyte on a solid surface through an enzyme-linked reagent.

In assay [2] the target is T1, Human alpha-synuclein. Kind of assay: direct binding ELISA, plates coated with human alpha-synuclein, anti-hIgG-HRP detection.
Source text: as §1

B1: 12F4 hIgG1 (antibody, V domains shown)
VH: EVQLVESGGGLVEPGGSLRLSCAVSGFDFEKAWMSWVRQAPGQGLQWVARIKSTADGGTTSYAAPVEGRFIISRDDSRNMLYLQMNSLKTEDTAVYYCTSAHWGQGTLVTVSS
VL: SYELTQPPSVSVSPGQTARITCSGEALPMQFAHWYQQRPGKAPVIVVYKDSERPSGVPERFSGSSSGTTATLTITGVQAEDEADYYCQSPDSTNTYEVFGGGTKLTVLS
notes: also called anti-alpha synuclein (12F4); 12F4 without FC5 attached
For B1, the binding result with Human alpha-synuclein [1] is recorded as “binds”.

B2: FC5-H62(T33C/A104C)-12F4(LC) hIgG1 (bispecific antibody)
heavy: not shown
light: DVQLVESGGGLVQPGGSLRLSCAASGFKITHYCTGWFRQAPGKEREFVSRITWGGDNTFYSNSVKGRFTISRDNSKNTVYLQMNSLRAEDTAVYYCAAGSTSTCTPLRVDYWGQGTLVTVSSGGGGSSYELTQPPSVSVSPGQTARITCSGEALPMQFAHWYQQRPGKAPVIVVYKDSERPSGVPERFSGSSSGTTATLTITGVQAEDEADYYCQSPDSTNTYEVFGGGTKLTVLSQPKAAPSVTLFPPSSEELQANKATLVCLISDFYPGAVTVAWKADSSPVKAGVETTTPSKQSNNKYAASSYLSLTPEQWKSHRSYSCQVTHEGSTVEKTVAPTECS
notes: also called hFC5.2-12F4(LC) hIgG1; FC5-H62(T33C/A104C)-12F4 hIgG1
In the case of B2, in the assay with Human alpha-synuclein [2], the binding result was “binds”.

B3: FC5-H62(T33C/A104C)-12F4(LC) hIgG4P/G1 agly (bispecific antibody)
heavy: EVQLVESGGGLVEPGGSLRLSCAVSGFDFEKAWMSWVRQAPGQGLQWVARIKSTADGGTTSYAAPVEGRFIISRDDSRNMLYLQMNSLKTEDTAVYYCTSAHWGQGTLVTVSSASTKGPSVFPLAPCSRSTSESTAALGCLVKDYFPEPVTVSWNSGALTSGVHTFPAVLQSSGLYSLSSVVTVPSSSLGTKTYTCNVDHKPSNTKVDKRVESKYGPPCPPCPAPEFLGGPSVFLFPPKPKDTLMISRTPEVTCVVVDVSQEDPEVQFNWYVDGVEVHNAKTKPREEQFQSTYRVVSVLTVLHQDWLNGKEYKCKVSNKGLPSSIEKTISKAKGQPREPQVYTLPPSRDELTKNQVSLTCLVKGFYPSDIAVEWESNGQPENNYKTTPPVLDSDGSFFLYSKLTVDKSRWQQGNVFSCSVMHEALHNHYTQKSLSLSPG
light: B2 light
Consider B3, for which the binding result with Human alpha-synuclein [2] is given as “binds”.

B4: FC5-H62(T33C/A104C)-12F4(LC) hIgG2 SAA (bispecific antibody)
heavy: EVQLVESGGGLVEPGGSLRLSCAVSGFDFEKAWMSWVRQAPGQGLQWVARIKSTADGGTTSYAAPVEGRFIISRDDSRNMLYLQMNSLKTEDTAVYYCTSAHWGQGTLVTVSSASTKGPSVFPLAPCSRSTSESTAALGCLVKDYFPEPVTVSWNSGALTSGVHTFPAVLQSSGLYSLSSVVTVPSSNFGTQTYTCNVDHKPSNTKVDKTVERKSCVECPPCPAPPAAAPSVFLFPPKPKDTLMISRTPEVTCVVVDVSHEDPEVQFNWYVDGVEVHNAKTKPREEQFNSTFRVVSVLTVVHQDWLNGKEYKCKVSNKGLPAPIEKTISKTKGQPREPQVYTLPPSREEMTKNQVSLTCLVKGFYPSDIAVEWESNGQPENNYKTTPPMLDSDGSFFLYSKLTVDKSRWQQGNVFSCSVMHEALHNHYTQKSLSLSPG
light: B2 light
Consider B4, for which, in the assay with Human alpha-synuclein [2], the binding result is recorded as “binds”.

B5: FC5-H62(T33C/A104C)-12F4(LC) hIgG1 agly (N297Q) (bispecific antibody)
heavy: not shown
light: B2 light
notes: also called FC5-H62(T33C/A104C)-12F4 hIgG1 agly
Consider B5, for which the binding result with Human alpha-synuclein [2] was “binds”.
